Two molecules from patent US20090123479A1 (published 2009) can be followed below.

Test [1] deals with T1, recombinant human IL-23 (human, UniProt Q9NPF7 20-189; P29460 23-328).
T1 construct: also called hIL-23
T1 sequence 1: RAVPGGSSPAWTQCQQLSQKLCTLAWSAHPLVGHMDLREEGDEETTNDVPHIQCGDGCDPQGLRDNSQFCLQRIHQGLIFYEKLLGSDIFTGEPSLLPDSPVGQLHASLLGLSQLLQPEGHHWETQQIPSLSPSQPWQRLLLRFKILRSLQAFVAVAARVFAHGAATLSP
T1 sequence 2: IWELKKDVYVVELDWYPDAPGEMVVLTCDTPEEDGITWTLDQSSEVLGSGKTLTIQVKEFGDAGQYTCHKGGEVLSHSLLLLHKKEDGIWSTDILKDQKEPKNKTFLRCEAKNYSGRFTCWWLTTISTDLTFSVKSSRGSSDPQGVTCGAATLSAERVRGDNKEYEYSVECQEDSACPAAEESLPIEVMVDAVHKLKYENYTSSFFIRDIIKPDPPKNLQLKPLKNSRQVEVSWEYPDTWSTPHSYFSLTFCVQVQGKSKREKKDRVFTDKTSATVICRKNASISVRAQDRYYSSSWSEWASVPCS
As to the kind of experiment: SPR (Biacore T100), transient material captured on Protein A or anti-human IgG, IL-23 analyte at 256, 64, 16, 4, 1 nM. On the procedure:
Protein A or an anti-human IgG (Biacore BR-1008-39) was immobilised on a Biacore CM5 chip by primary amine coupling in accordance with the manufacturer's instructions. Anti IL-23 antibodies were captured on this surface and after a period of stabilisation, […] was passed over the antibody captured surface and a binding sensorgram was obtained. […] All runs were double referenced with a buffer injection over the captured antibody surface. Data was analysed using the 1:1 model using the software inherent to the Biacore 3000 or T100 depending upon which machine was used to generate kinetics. Analysis was carried out at 25° C. using HBS-EP buffer. Data presented in Tables 3-6 are on tissue culture supernatants of CHO cells transiently expressing the antibody of interest unless otherwise indicated. Data was generated using concentrations of IL-23 (256, 64, 16, 4, 1 and 0.25 nM) The data shown for the humanized variants is representative of a number of runs, The chimeric mAb (8C9H6.HC1LC1) was only run once in each experiment, so data shown for this mAb is from that one run, […]

In test [2] the target is T1, recombinant human IL-23. As to the kind of experiment: sandwich ELISA (optimised protocol, OD450): plate coated with anti-human IL-12, antibody pre-incubated with constant human IL-23, bound antibody detected with anti-human IgG gamma chain HRP; purified antibody. The procedure: Optimised assay conditions: Plates were coated with anti human IL12 at 2 μg/diluent (phosphate buffered saline). 50 μl/well of this mixture was incubated overnight at 4° C. The plates were then washed three times with Phosphate Buffered Saline with 0.05% Tween 20 (PBST). Plates were blocked with 4% skim milk powder (Fluka BioChemika #70166) PBS 200 μl/well for a minimum of 1 hour at room temperature. The plates were then washed three times with Phosphate Buffered Saline+0.05% Tween 20 (PBST). Various concentrations of antibody were incubated in a separate plate with a constant concentration of IL-23 for 1 hour at room temperature. 50 ul of each mixture were transferred to the assay plate and incubated at RT for 1 hr. They were then washed three times with Phosphate Buffered Saline+0.05% Tween 20 (PBST). […] 50 μl/well of the detection antibody was added and incubated at RT for 1 hour. The plates were then washed three times with Phosphate Buffered Saline+0.05% Tween 20 (PBST). 50 μl/well of TMB was added to the plates and incubated at RT for 10 min. 50 μl/well of 1 MH₂SO₄ was added. The plate was read at OD450 nm using the SOftmaxPRO versamax plate reader.

Test [3] addresses T1, recombinant human IL-23. In words: SPR (Biacore T100), purified antibody captured on anti-human IgG, IL-23 analyte, 1:1 model. The procedure:
Biacore analysis was carried out using a capture surface on a CM5 chip. Anti-human IgG (BR-1008-39) was used as the capturing agent. Anti-human IgG was coupled to a CM5 biosensor chip by primary amine coupling. Humanized antibody was captured on this immobilised surface and defined concentrations of IL-23 were passed over this captured surface. An injection of buffer over the captured antibody surface was used for double-referencing. […] T100 Biacore machine was used to generate the data; all runs were carried out at 25° C. using HBS EP. Data was analysed using the software inherent to the machine and fitted to the 1:1 model of binding. Tables 7 and 8 detail the IL-23 binding analysis carried out on the 8C92H6.HC1LC1 chimera and selected humanized variants in two separate experiments. Data presented in Tables 7 and 8 are from purified antibody samples. The data shown for the humanized variants is representative of a number of runs. The chimeric mAb (8C9H6.HC1LC1) was only run once in each experiment, so data shown for this mAb is from that one run.

The target in test [4] is T1, recombinant human IL-23. In words: SPR (Biacore 3000), CHO supernatant antibody captured on Protein A or anti-human IgG, IL-23 analyte at 256, 64, 16, 4 nM.

B1: chimeric 8C92H6 HC1LC1 (antibody, V domains shown)
VH: QVQLQQSGAELARPGTSVKLSCKASGYTFTSYGITWVKQRTGQGLEWIGENYPRSGNTYYNEKFKGKATLTADKSSSTAYMELRSLTSEDSAVYFCARCEFISTVVAPYYYALDYWGQGTSLVTVS
VL: DIVLTQSPASLAVSLGQKATISCKASKKVTIFGSISALHWYQQKPGQPPKLIYNGAKLESGVSARFSDSGSQNRSPFGNQLSFTLTIDPVEADDAATYYCLQNKEVPYTFGGGTKLEIKR
notes: Murine variable regions with human constant regions; also called 8C92H6.HC1LC1 Chimera; 8C9 chimera
Regarding B1, in test [1], the Kd stood at 1.8 nM, the koff was determined as 0.00038 s⁻¹ and the kon worked out at 210000 M⁻¹ s⁻¹. The “EC50 (read off the curve)” value in test [2] is ~0.06 nM.

B2: A3M0 (antibody, human IgG1, kappa, V domains shown)
VH: QVQLVQSGAEVKKPGSSVKVSCKASGYTFTSYGITWVRQAPGQGLEWMGENYPRSGNTYYNEKFKGRVTITADKSTSTAYMELSSLRSEDTAVYYCARSEFISTVVAPYYYALDYWGQGTLVTVSS
VL: DIVMTQSPDSLAVSLGERATINCKASKKVTIFGSISALHWYQQKPGQPPKLIYNGAKLESGVPDRFSGSGSGTDFTLTISSLQAEDVAVYYCLQNKEVPYTFGGGTKVEIKR
notes: Full length chains; also called humanized mAb A3M0
Turning to B2, in test [3], the Kd was 0.194 nM, the koff came out at 0.000237 s⁻¹ and the on-rate (kon) worked out at 1.22e+06 M⁻¹ s⁻¹. In addition, in test [4], the Kd was determined as 1.1 nM, the koff turned out to be 0.00033 s⁻¹ and the kon stood at 300000 M⁻¹ s⁻¹.
